The series is described as follows: label from the status in PepcDB records.

“MTSNERILQPFTLPNGTELKNRLLMAPMTTCTGYFDGTVTSELVEYYRARAGSIGTIIVECCFIDDYGLAFPGAIGIDNDEKIAGLAKIAEAIKAEGSKAILQIYHGGRMVDPQLIGGRQPVAPSAIAAPREGAAMPRALSGEEVEGMIAKFGDGVRRAILAGFDGVEIHGANTYLIQQFYSPNSNQRDDEWGGSRDNRARFPLAVLDITHKMARQYADDAFIIGYRFSPEEMEVPGIRFDDTMYLLEKLAARGVDYLHFSVGATLRPSIVDTSDATPLIEKYCAMRSDTLAQVPVMGVGGVVNAADAEQGLDHGYDLIAVGRACIAYPDWASRIAAGEELELFIDSTQREALHIPEPLWRFSLVEAMIRDMSMGDAKFKPGMFVETVHDDANELVINVSLENDHIADIELAASPVQTVEFTTSFEEIRERILTANTPHVDAISGATSQSEAVKKAVAKAMLKSSKALAAEEGGNDAAPKSYDVVVVGSGGAGLAAAIQAHDEGASVLIVEKMPTIGGNTIKASAGMNAAETRFQRVKGIEDSKELFYQETLKGGHNKNNPQLLRRFVENAPQAIEWLADRGIMLNDITTTGGMSIDRTHRPRDGSAVGGYLISGLVRNITKRGIDVLLDTSVEEILMRGDEVSGVRLINDEKEVIEVQTKSIVVATGGFSANSAMVVKYRPDLEGFVTTNHKGATGSGIALLERIGAGTVDMGEIQIHPTVEQQTSYLISESIRGGGAILVNQQGNRFFNEMETRDKVSAAIIALPEHYACIVFDEHVRAKNKAADEYIAKGFVTSASSPRELAEKLGMDYHAFLATLECYNGAVEKQHDEQFGRTTALRAPINEGPFHAIRIAPGVHHTMGGVTINTDGEVLNVAQQPICGAYAAGEVVGGIHGGNRIGGNAVADIIIFGTLAGHQAAKRARG”: the protein production result was “failed”.

“MTSSEQPRTYWLEHAWLGTHVEPGVALDVRDGRITAVNQGVATPPPGAGILRGLTLPGLANAHSHAFHRALRGTVQVGSGTFWTWREVMYSVADRLTPDTYHALARAVYAEMALAGITAVGEFHYVHHAPGGTPYADPNAMGEALIEAAAEAGVRITLLDTCYLSSGFGEPPNTHQRRFSDGTADAWAERCSVLKERDHARIGAAIHSVRAVPADQLATVAQWAEERRAPLHVHLSEQTAENDACRQAHGRTPTRLLADHGVLGARTTGVHNTHLTDEDIALLGGSRTGTCMCLTTERDLADGIGPAAALQRAGSPLSLGSDSHAVVDLLEEARAMELNERLRTRARGHWTAAALLRAATADGHAALGWDDTGRIEAGARADLATIALDSVRTAGPLPRLGAETAVFAATAADVRHTVVGGRHVVRDGAHTLVPDVPQALARAVEALRA”: the protein production entry was “failed”.

With “MTSSMLFNITTFTYLVSMLAFFAFLASRNRHLGMAGSLISYFGFFVHTAAILLRWKESYDIGHGHAPLSNLYESVVFFAWTIVLIFGIIDLKYKYRVVGAFVMPFALLGMAWAQLTLNSGIEPLVPALQSNWLLYHVVTCFLGYAAFAVACGISIMYLIKAGKEDSSQSAQAGGIISMFPPTKILDDLNYKAIMIGFPLLTLGIITGAAWANYAWGTYWSWDPKETWSLIVWFVYAAFLHARFTRGWVGKRAAILSIVGFAATIFCYLGVNLLLSGLHSYGGG”, the protein production result is recorded as “failed”.

For “MTSSSQRLALLEAVVEQSFNAVLITDANLANGGPLIVYVNPAFCTMTGYTAEELIGLSPRILQGADTDPQVIERLRQCLSERLFFEGSTVNYRADGSPYVVEWKITPVRDDAGQVCNFVSVQQNISPRIRAEREQHLLAQALNAAFDPIIITDRNSTIVFANEAFQLITGYSAPEIIGQNPRMLRSGKHDALFYAQFNESLASGEPFRTTFINKRKDGSLFYAEHSISPLRNVEGAMTHYVSISQDVTTRLGREQKLLEIAHSDTLTGLDNRRAAEHTLERLINTARMAGKPFSFIICDIDHFKSVNDRYGHPAGDSVLKSVAAILKHRIRAFDVAARWGGEEFLILVPDSSLKQAAELAERVRKGVESLEIPEAGPVTISLGVAELSPGETAASLIQRADKVLYQAKRLGRNRVEIAQADDPAY”, the protein production result is “failed”.

For the sequence “MTSTFLLEIGTEELPADFARQALDQLQDRVGRDLLDSRLDHKSVQVLGTPRRLVVRVHGLADRQPDLEEDQKGPPIAQAFKDGVPGPAAIGFSKRCGVDPSQLEVRNTPKGECVFASVRTEGQNSVDLLQELIPAWINGLQGRRFMRWGTGSQRFSRPIRWLLALKGVDLIPVEIPGADPPVRSDRFSRGHRLHGDQPLPIDTAEDYDDTLAAAGVIVDRQQRAALIRSQLDASADQLNGLPDCPESLFEELVDLVESPRLLQGSIAERFLSLPPEVIITVMQAHQRYVPLKVPEVTPDPLQLEATVVLQRDFLLVGNGLEAADALITRGNERVLAARLADAEFFLSVDRRQPSSARREALDRVTFAEGLGSLLDRCQRIERTARQLVDQLNLDAHQGEAAIRAAHFCKHDLVSQMVGEFPELQGLMGGKYLLEEGEPTEVALAVVEHYLPRGAGDQLPSSDAGAVVALAERLELLLSIFAKGERPSGSSDPYALRRAGNGLLQIVWDRGWRLDLSRFLGSAVEDWAALFPEFAIDSSALHQDLCQLLRQRIVSQLEDEGFVPDLVQAVSAESVAT”, the protein production entry is on record as “failed”.

As to “MTSTSITAVEYQSKRLESRLLKETREYVIALPEGYAQSLEAYPVVYLLDGEDQFDHMASLLQFLSQGTMPQIPKVIIVGIHNTNRMRDYTPTHTLVLPSGNKGNPQYQHTGGAGRFLDFIEKELAPSIESQLRTNGINVLVGHSFGGLVAMEALRTDRPLFSAYLALDTSLWFDSPHYLTLLEERVVKGDFKQKQLFMAIANNPLSPGFGVSSYHKDLNLAFADKLTKLAPKGLGFMAKYYPEETHQSVSHIGLYDGIRHLFKDFAIDIYSDSFSKQQVIDQYGVLSERFGHKVTPSQQYLEQLIQYSDRQQLTERKQMLEGLRQHFAKD”, the protein production result is recorded as “not failed”.

Regarding “MTSYPQQPQQTEQYGVQAGEPPLWAPYYGAPIGAAIRRFFKKYTAFSGRASRSEYWWVALALGVIGIVLQILTGILGAAGSTTTSSGTVPGPGAVVGLILIFVFYLAVLIPSIALLVRRLHDGNFSGWLALLGLIPFVGGLAILVFALLPSNPAGQRFDQPTA”, the protein production entry is “failed”.

On to “MTTAQMSVYFFLQAAAILLVCRLVGMLAKRLGQPQVVGEMIAGVMLGPSLFGLLAPGAQAALFPKQTMDVLYVFAQFGVGMYMFLVGTDFRSDHFRARYRSAMSVSLAGIAVPFLLAFAMCPWLINVEGLFSEKAKLMEASLFLGAAIAITAFPMLARIIHERGLATSPLGTLALTAGAFDDASAWCILAVVLASFGGSWGSAYLAIGGGIGYAVFMIFVGRHLLKRLADHVVPGQPLSNSVLAVVLILFCVSAWAMDAIGIHAVFGGFLLGVCLPRGALTEKLREMLQPFVVVLLLPMFFTYSGLKTQLSVLLQPQIMLAGVAILAASFIGKGVACWAAARTTGENNRDAMAIGALMNARGLMELIIINIGLQAGVIEQGLFSVLVLMAILSTLMATPLFNWIMRRHAHVSDAVPSLQSR”, for which the protein production entry was “failed”.

Consider “MTTARPAKARNEGQWALGHREPLNANEELKKAGNPLDVRERIENIYAKQGFDSIDKTDLRGRFRWWGLYTQREQGYDGTWTGDDNIDKLEAKYFMMRVRCDGGALSAAALRTLGQISTEFARDTADISDRQNVQYHWIEVENVPEIWRRLDDVGLQTTEACGDCPRVVLGSPLAGESLDEVLDPTWAIEEIVRRYIGKPDFADLPRKYKTAISGLQDVAHEINDVAFIGVNHPEHGPGLDLWVGGGLSTNPMLAQRVGAWVPLGEVPEVWAAVTSVFRDYGYRRLRAKARLKFLIKDWGIAKFREVLETEYLKRPLIDGPAPEPVKHPIDHVGVQRLKNGLNAVGVAPIAGRVSGTILTAVADLMARAGSDRIRFTPYQKLVILDIPDALLDDLIAGLDALGLQSRPSHWRRNLMACSGIEFCKLSFAETRVRAQHLVPELERRLEDINSQLDVPITVNINGCPNSCARIQIADIGFKGQMIDDGHGGSVEGFQVHLGGHLGLDAGFGRKLRQHKVTSDELGDYIDRVVRNFVKHRSEGERFAQWVIRAEEDDLR”, for which the protein production entry is listed as “not failed”.
